Laboratory results published in publication PMC6981215.

Target: Momordica charantia 7S globulin (Momordica charantia)
Assay: SEC; HiLoad 16/60 Superdex 200 pg, 50 mM Tris pH 7.4 with 150 mM NaCl, 0.5 ml/min; peak at ~69.2 ml, mass estimated from a calibration with high molecular weight standards

stoichiometry N: 3
Substance: Momordica charantia 7S globulin (natural protein)
